Data as given in article PMC6637149, “Cryo-EM and directed evolution reveal how Arabidopsis nitrilase specificity is influenced by its quaternary structure” (Communications Biology, 2019).
Residue numbers refer to the chain shown, from its start. Names may count otherwise.

B1: Arabidopsis thaliana nitrilase 4 (AtNIT4), wild type (enzyme, UniProt P46011 1-355, looked up)
chain: MSMQQETSHMTAAPQTNGHQIFPEIDMSAGDSSSIVRATVVQASTVFYDTPATLDKAERLLSEAAENGSQLVVFPEAFIGGYPRGSTFELAIGSRTAKGRDDFRKYHASAIDVPGPEVERLALMAKKYKVYLVMGVIEREGYTLYCTVLFFDSQGLFLGKHRKLMPTALERCIWGFGDGSTIPVFDTPIGKIGAAICWENRMPSLRTAMYAKGIEIYCAPTADSRETWLASMTHIALEGGCFVLSANQFCRRKDYPSPPEYMFSGSEESLTPDSVVCAGGSSIISPLGIVLAGPNYRGEALITADLDLGDIARAKFDFDVVGHYSRPEVFSLNIREHPRKAVSFKTSKVMEDESV
notes: Nitrilase 4 of Arabidopsis thaliana, NP_197622.1, AT5G22300; 355 residues in all, 289 built in the model; Forms open-ended left-handed helical filaments built of dimers, so no fixed number of copies. pET-21b(+) usually adds a C-terminal His6 tag (surmised); also called AtNIT4 wt; source: E. coli BL21-CodonPlus (DE3)-RIL, pET-21b(+), purified (Ni-NTA, SEC)
B2: AtNIT4 R95T (enzyme, Arabidopsis thaliana, UniProt P46011 1-355, looked up)
chain: B1 chain with R95T
notes: Nitrilase 4 of Arabidopsis thaliana, NP_197622.1, with the substitution R95T; Full length is inferred from the parent construct; source: E. coli BL21-CodonPlus (DE3)-RIL, pET-21b(+), purified (Ni-NTA, SEC)
B3: AtNIT4 R95T L169A S224Q (enzyme, Arabidopsis thaliana, UniProt P46011 1-355, looked up)
chain: B1 chain with R95T, L169A, S224Q
notes: Nitrilase 4 of Arabidopsis thaliana, NP_197622.1, with three substitutions selected from a site-saturation library made in the vector of the wild type; Selected by directed evolution from the AtNIT4 pET-21b(+) vector; full length is inferred from the parent construct; also called the mutant; NIT4 mutant; source: E. coli BL21-CodonPlus (DE3)-RIL, pET-21b(+), purified (Ni-NTA, SEC)

How the values were obtained:
[1] = target: the molecule itself; test: cryo-EM structure; purified AtNIT4 filaments (~0.15 mg/ml) in 50 mM Tris-HCl pH 8.0, 100 mM NaCl, blotted at ~10% humidity, 25 °C; helical reconstruction, one helical turn treated as a single particle
[2] = target: the molecule itself; test: negative-stain electron microscopy with 3D helical reconstruction; purified NIT filaments on carbon-coated copper grids, 2% uranyl acetate; iterative helical real-space reconstruction

| Protein | binding result [1] | binding result [2] |
| --- | --- | --- |
| B1 | binds |  |
| B2 |  | binds |
| B3 |  | binds |
